The results in this text go back to doi:10.1101/2021.05.13.443999.

In this assay the target is p47^phox (human (endogenous in HEK-293 and in human midbrain)) (UniProt P14598). Briefly: proximity ligation.

Usually IC50 stands for the concentration needed to halve the response being measured.

Sequence of UniProt P14598 (P14598 whole entry): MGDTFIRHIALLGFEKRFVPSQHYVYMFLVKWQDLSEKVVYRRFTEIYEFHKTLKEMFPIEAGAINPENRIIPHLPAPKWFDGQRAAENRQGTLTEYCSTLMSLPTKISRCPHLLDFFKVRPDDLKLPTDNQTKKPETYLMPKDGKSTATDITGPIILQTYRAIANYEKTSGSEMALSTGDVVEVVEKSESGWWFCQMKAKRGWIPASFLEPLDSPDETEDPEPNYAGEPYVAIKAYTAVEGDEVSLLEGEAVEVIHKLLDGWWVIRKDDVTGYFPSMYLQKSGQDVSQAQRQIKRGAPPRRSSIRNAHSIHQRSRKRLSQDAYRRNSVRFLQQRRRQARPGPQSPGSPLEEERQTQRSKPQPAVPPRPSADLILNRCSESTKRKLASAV

Substance “NOX2 docking sequence (Nox2ds)-tat (peptide)” gave an IC50 of 700 nM.
